Measured values as given in publication PMC11838199.

Biological target: C12ORF57-FLAG (human) (UniProt Q99622)
Assay: co-IP

Chain of UniProt Q99622 (Q99622 whole entry): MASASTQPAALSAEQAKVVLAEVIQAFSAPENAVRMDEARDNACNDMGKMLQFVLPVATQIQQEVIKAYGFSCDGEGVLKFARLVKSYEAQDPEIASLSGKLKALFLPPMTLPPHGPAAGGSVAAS

Substance | change in CAMK4 co-precipitated with C12ORF57-FLAG, against wild type CAMK4
CAMK4 lacking the autoinhibitory domain (NAI) (from UniProt Q16566 1-473) (enzyme) | -65.8%
CAMK4 lacking the calmodulin binding domain (NCB) (from UniProt Q16566 1-473) (enzyme) | -6.13%
